We go through one molecule from PMC5624926 (Nature Communications, 2017).

What all share (conditions): both partners purified
In one assay the target is T1, CD22_(20–687) (human, UniProt P20273, N-linked glycans; glycoform not stated).
T1 construct: also called full-length CD22 ECD; not shown: His6, C-terminal, kept
The experiment in a line: negative-stain electron microscopy; CD22_(20–687) in complex with epratuzumab Fab, 2% uranyl formate stain; 2D class averages and ab initio 3D envelope.

A further assay concerns the target T2, CD22_(20–687)S (human, UniProt P20273, N-linked glycans of high mannose type (HEK293S)).
T2 construct: differs in the glycoform; also called full-length CD22 ECD made in HEK293S (HEK293 Gnt I−/−); source: HEK293 Gnt I−/− (HEK293S), transiently transfected, secreted, purified (Ni-NTA, Superdex 200); not shown: His6, C-terminal, kept
In words: BLI; Octet RED96; CD22_(20–687) forms loaded on Ni-NTA biosensors; Fab in solution 500 to 62.5 nM; 1x PBS pH 7.4, 0.002% Tween, 0.01% BSA; 1:1 fit; triplicate.

In another assay the target is T3, CD22_(20–687)F N231Q (human, UniProt P20273, N231Q, N-linked glycans with mature carbohydrates (HEK293F); glycosylation site N231 knocked out).
T3 construct: also called CD22 N231Q mutant; source: HEK293F, transiently transfected, secreted, purified (Ni-NTA, Superdex 200); not shown: His6, C-terminal, kept
The description is as above.

B1: epratuzumab Fab (Fab, V domains shown)
VH: QVQLVQSGAEVKKPGSSVKVSCKASGYTFTSYWLHWVRQAPGQGLEWIGYINPRNDYTEYNQNFKDKATITADESTNTAYMELSSLRSEDTAFYFCARRDITTFYWGQGTTVTVSS
VL: DIQLTQSPSSLSASVGDRVTMSCKSSQSVLYSANHKNYLAWYQQKPGKAPKLLIYWASTRESGVPSRFSGSGSGTDFTLTISSLQPEDIATYYCHQYLSSWTFGGGTKLEIK
notes: heavy chain of the epratuzumab Fab, gene synthesized by GeneArt; PDB 5VL3, complex with CD22; light chain of the epratuzumab Fab, gene synthesized by GeneArt; Therapeutic anti-CD22 antibody, used as Fab; purified on KappaSelect, so the light chain should be kappa (surmised); source: HEK293F, heavy and light chain co-transfected, purified (KappaSelect, MonoS, Superdex 200)
For B1, the binding result with CD22_(20–687) and with CD22_(20–687)S was “binds” each time. Besides, the “fold improvement in affinity against WT CD22” value with CD22_(20–687)F N231Q was 6 fold. The “fold increase in on-rate against WT CD22” value with CD22_(20–687)F N231Q is 25 fold.
